Consider three molecules from paper PMC8245419, “Structure-based insights into evolution of rhodopsins” (Communications Biology, 2021).

Bounds are passed on as bounds.

Assay [1] deals with Leptosphaeria rhodopsin LR, N-terminally truncated (residues 49–313) (Leptosphaeria maculans). As to the kind of experiment: cross-linking; glutaraldehyde vapor for 30 min, then gradient SDS-PAGE 18.5-8%; protein in DDM micelles; untreated samples as control.
Assay [2] has the same target. As to the kind of experiment: SEC; Superdex 200 Increase 10/300 GL, 0.05% DDM micelles; masses calculated from retention volume at pH 8.0 (results; the methods give a SEC buffer of pH 6.5, 0.2 M NaCl); trimer to monomers.
Another assay deals with T1, LR (Mac), LR 1–313 (Plenodomus lingam, UniProt Q9HGT7).
T1 construct: gene ops; full-length 1-313, C-terminal polyhistidine tag, codon-optimised synthetic gene, expressed in Leishmania tarentolae (LEXSY), DDM; likely trimer; residues 42-286 resolved
T1 sequence (Q9HGT7 1-313): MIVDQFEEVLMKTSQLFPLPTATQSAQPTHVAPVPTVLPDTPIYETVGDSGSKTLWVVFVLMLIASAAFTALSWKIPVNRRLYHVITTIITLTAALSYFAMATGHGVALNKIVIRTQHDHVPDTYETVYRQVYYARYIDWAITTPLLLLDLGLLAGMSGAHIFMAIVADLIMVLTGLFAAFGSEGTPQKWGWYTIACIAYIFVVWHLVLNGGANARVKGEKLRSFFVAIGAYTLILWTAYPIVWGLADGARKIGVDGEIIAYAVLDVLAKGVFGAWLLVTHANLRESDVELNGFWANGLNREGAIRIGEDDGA
As to the kind of experiment: X-ray crystallography, […] Å. It is filed as binding. As to conditions: covalent; retinal Schiff base at K270; pH 7.0.

The next assay has as its target T2, LR 49–313 (Plenodomus lingam, UniProt Q9HGT7).
T2 construct: gene ops; N-terminally truncated 49-313, C-terminal polyhistidine tag, codon-optimised synthetic gene, expressed in Leishmania tarentolae (LEXSY), DDM; mostly monomer
T2 sequence (Q9HGT7 49-313): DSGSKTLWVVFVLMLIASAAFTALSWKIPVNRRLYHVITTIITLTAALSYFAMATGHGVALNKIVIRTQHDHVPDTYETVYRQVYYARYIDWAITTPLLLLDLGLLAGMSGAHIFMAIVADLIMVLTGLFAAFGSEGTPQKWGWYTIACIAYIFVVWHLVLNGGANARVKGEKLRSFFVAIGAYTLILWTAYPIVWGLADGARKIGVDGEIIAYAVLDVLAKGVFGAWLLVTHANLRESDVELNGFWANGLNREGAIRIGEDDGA
As to the kind of experiment: time-resolved absorption spectroscopy (photocycle). It is filed as binding. As to conditions: covalent; DDM micelles; 5 μM all-trans-retinal added at solubilization.

The target of assay [3] is Leptosphaeria rhodopsin LR (Mac), full-length (residues 1–313) (Leptosphaeria maculans). As to the kind of experiment: cross-linking; glutaraldehyde vapor for 30 min, then gradient SDS-PAGE 18.5-8%; protein in DDM micelles; untreated samples as control.
Assay [4] has the same target. As to the kind of experiment: SEC; Superdex 200 Increase 10/300 GL, 0.05% DDM micelles; masses calculated from retention volume at pH 8.0 (results; the methods give a SEC buffer of pH 6.5, 0.2 M NaCl); trimer to monomers.

The stoichiometry N is the number of molecules, sites or subunits per partner or assembly.

In turn, “Leptosphaeria rhodopsin LR, N-terminally truncated (residues 49–313) (domain or fragment)” yielded a stoichiometry N in assay [1] of less than 3. In addition, in assay [2], the ratio between monomers and trimers (monomers:trimers) is 40; the stoichiometry N is 3.

With `CC1=C(/C=C/C(C)=C/C=C/C(C)=C/C=O)C(C)(C)CCC1` [ATR, all-trans-retinal], the “X-ray crystallography, 2.2 Å” value at LR (Mac), LR 1–313 is listed as “retinal chromophore covalently attached to the K270 on the TM7”. In addition, the “time-resolved absorption spectroscopy (photocycle)” value on LR 49–313 was “Both full-length and truncated constructs of LR in DDM micelles exhibit almost similar relaxation time”.

Consider “Leptosphaeria rhodopsin LR (Mac), full-length (residues 1–313) (natural protein)”, for which the figures for the stoichiometry N in assay [3] and in assay [4] were less than 3 and 3, respectively. In addition, the ratio between monomers and trimers (monomers:trimers) in assay [4] was 0.4.
